Measured values published in patent JP2024517985A (dated 2024).

Experiments:
[1] = biological target: T1, 293T細胞及びTHP-1細胞の表面で過剰発現されたCD300c (UniProt Q08708 21-224, limits assumed); assay: flow cytometry (MFI) on 293T cells overexpressing CD300c, FITC anti-human IgG (H+L)
T1 construct: whole, on cells; Expression construct not described; also called CD300c overexpressed on 293T cells; CD300c overexpressed on THP-1 cells
T1 sequence (looked up): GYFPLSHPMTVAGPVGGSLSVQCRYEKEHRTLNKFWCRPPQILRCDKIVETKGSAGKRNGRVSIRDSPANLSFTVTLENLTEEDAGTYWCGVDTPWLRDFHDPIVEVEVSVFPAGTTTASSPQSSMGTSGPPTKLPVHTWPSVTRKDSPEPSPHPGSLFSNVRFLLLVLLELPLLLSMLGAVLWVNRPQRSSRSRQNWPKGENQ

[2] = biological target: T2, CD300c抗原(11832-H08H、Sino Biological) (UniProt Q08708 21-183); assay: SPR, CD300c immobilised on CM5 chip, CL7 as analyte 0-6.25 ug/ml
T2 construct: Bought recombinant protein; also called CD300c; CD300c antigen
T2 sequence (looked up): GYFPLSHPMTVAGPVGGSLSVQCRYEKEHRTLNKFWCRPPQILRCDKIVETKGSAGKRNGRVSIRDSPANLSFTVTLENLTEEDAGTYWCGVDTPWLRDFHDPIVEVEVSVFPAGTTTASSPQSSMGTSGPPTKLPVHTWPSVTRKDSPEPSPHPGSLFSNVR

[3] = biological target: T2, CD300c抗原(11832-H08H、Sino Biological); assay: SPR, CD300c immobilised on CM5 chip, CL7 as analyte 0-6.25 ug/ml (rounded form of the same KD)
[4] = biological target: T1, 293T細胞及びTHP-1細胞の表面で過剰発現されたCD300c; assay: flow cytometry (MFI) on THP-1 cells overexpressing CD300c, FITC anti-human IgG (H+L)

EC50 [1]: 2.7 nM
Kd [2]: 0.52 nM
Kd [3]: 0.52 nM
EC50 [4]: 2.6 nM
B1: 抗-CD300cモノクローナル抗体 CL7 (antibody, V domains shown)
VH: EVQLLESGGGLVQPGGSLRLSCAASGFTFSRYAMSWVRQAPGKGLEWVSAISGSGGSTYYADSVKGRFTISRDNSKNTLYLQMNSLRAEDTAVYYCARSSQGIFDIWGQGTLVTVSS
VL: QSVLTQPPSASGTPGQRVTISCSGNNIGTRRVHWYQQLPDTAPKLLIYSKNNRPSGVPDRFSGSKSGTSASLAISGLRSEDEADYYCAAWDDSLSGPVFGGGTKLTVL
